From the DeepSol protein solubility set

Test: soluble on expression in E. coli; label from the status in PepcDB or PDB records

Sequence | soluble on expression in E. coli
MAASMARLWWPFLARQGLRSRGRCVCSQNPRRSFATEKRVRNLLYEHAREGYSELPYLDMESVCACPEKAARSLELRKGELRPADLPAIISTWQELRQLREQIRSLEAEKEAVAEAVRALLANQDSDQVQKDPQYQGLRARGREIRKQLTPLYPQETQLEEQLYQQALRLPNQTHPDTPVGDESQARVVRVVGEKPAFSFQPRGHLEIGEKLDIIRQKRLSHVSGHRSYYLRGAGALLQHGLVNFTLSKLVSRGFTPMTVPDLLRGAVFEGCGMTPNANPSQIYNIDPSRFEDLNLAGTAEVGLAGYFMDHSVAFRDLPVRMVCASTCYRAETDTGKEPWGLYRVHHFTKVEMFGVTGPGLEQSSQLLDEFLSLQVEILTELGLHFRVLDMPTQELGLPAYRKFDIEAWMPGRGRYGEVTSASNCTDFQSRRLYIMFETETGELQFAHTVNATACAVPRVLIALLESNQQKDGSVLVPAALQPYLGTDRITAPTHVPLQYIGPNQPQKPRLPGQSATR | soluble
MLLLPSAADGRGTAITHALTSASTLCQVEPVGRWFEAFVKRRNRNASASFQELEDKKELSEESEDEELQLEEFPMLKTLDPKDWKNQDHYAVLGLGHVRYKATQRQIKAAHKAMVLKHHPDKRKAAGEPIKEGDNDYFTCITKAYEMLSDPVKRRAFNSVDPTFDNSVPSKSEAKDNFFEVFTPVFERNSRWSNKKNVPKLGDMNSSFEDVDIFYSFWYNFDSWREFSYLDEEEKEKAECRDERRWIEKQNRATRAQRKKEEMNRIRTLVDNAYSCDPRIKKFKEEEKAKKEAEKKAKAEAKRKEQEAKEKQRQAELEAARLAKEKEEEEVRQQALLAKKEKDIQKKAIKKERQKLRNSCKTWNHFSDNEAERVKMMEEVEKLCDRLELASLQCLNETLTSCTKEVGKAALEKQIEEINEQIRKEKEEAEARMRQASKNTEKSTGGGGNGSKNWSEDDLQLLIKAVNLFPAGTNSRWEVIANYMNIHSSSGVKRTAKDVIGKAKSLQKLDPHQKDDINKKAFDKFKKEHGVVPQADNATPSERFEGPYTDFTPWTTEEQKLLEQALKTYPVNTPERWEKIAEAVPGRTKKDCMKRYKELVEMVKAKKAAQEQVLNASRAKK | not soluble
ESRSQISRRNQDMLLSVLDLEKVSVNDIMVPRNEIVGIDINDDWKSIVRQLTHSPHGRIVLYRDSLDDAISMLRVREAYRLMTEKKEFTKEIMLRAADEIYFVPEGTPLSTQLVKFQRNKKKVGLVVDEYGDIQGLVTVEDILEEIVGDFTTSMSPTLAEEVTPLNDGTVIIDGSANVREINKAFNWHLPEDEARTVNGII | soluble
NNAKEALELCDKRDWDLAELSYRYELQFHTKEEICAYCLEIWEVMQEVYYNGTHPNEDYLPGKLHLKRRAKGLKERVAMTADPMGIIDFISLYAIAIAEENASGAKVVTAPTNGACAVIPAVMLYLKNHTIGFSDEKVIEFLLTAMLIGSFYKKNASISGAEAGCQAEIGSASSMAAAAMATVLGANAFKACNAAEMAMEHHLGLTCDPVAGLVQIPCIERNAFGAIKAISAARMAMTRKSTPMVSLDEVIETMYETGKDMNYKYKETSLGGLATN | not soluble
MTENLTVQPERLGVLASHHDNAAVDASSGVEAAAGLGESVAITHGPYCSQFNDTLNVYLTAHNALGSSLHTAGVDLAKSLRIAAKIYSEADEAWRKAIDGLFT | soluble
MGSDKIHHHHHHMSENEQLSATYELLHADAASPVMISLPHSGTWIPADMRKHLLPTAVLANTDWFLPALYDFLPQTGFTTLINRVNRYVADPNRAVTLDLDHDYRSATIYQRNTFNHPLYARPLPPETLQSRLRTYYWPYRHALTMILKQKQAKFGHAYLIDLHSFAQYPHYPGIKPKTIVLGNDHDRTTSKIFRQTLSAAFVAHDFTVENNFPFRGGDITRYYGHQPNITAIQIELRYDQYIDQRSFREEVLTRHQTDLFCKAQDRLRFLRDFLKQLR | not soluble
MRGLAVLVLLVFAVQVAAAEDFRPVVFVHGLAGSAGQFESQGMRFAANGYPAEYVKTFEYDTISWALVVETDMLFSGLGSEFGLNISQIIDPETLDKILSKSRERLIDETFSRLDRVIDEALAESGADKVDLVGHSMGTFFLVRYVNSSPERAAKVAHLILLDGVWGVDAPEGIPTLAVFGNPKALPALGLPEEKVVYNATNVYFNNMTHVQLCTSPETFAVMFEFINGYKPATTDIVPQDGDYVKVKGKFLAFATNGDVSGWLSIYPIDENGKRLTRLPVKFMRVKGDFEVRLRKGQLYEFQFRKDFSPIIYHYYRAPFVRDDLWARFLVSKPPLDVELLILPERLSPAAKETSGLLLIRYKEMIGEYDEEIGGVDEVYVNGVNVCTERICPIERAVNGLWVFDRGADGKSDLDREVVRYSIMPFMSAADLVVPAEGTISIAVKSRTGGEESFTIPAWSADRHSIIVQFSDYIVDKLAAALEH | soluble
IHPVDSSERVLILGAGRTAEALVRDMRRTGAFVPVGFIDDAVYLRGAKIQGLNVLGRLEEVSTIARETAAKLLVIAIPSLDAAGMQRVVAMCESTGLPFRMVPKLIDVLEGRTLPCQLKEVSIEDLLNRKPVIPDWRLIRSWLSG | not soluble
RDDSTLVIGHNTGALAHRINDPQHAGSIVTAIKQETDLDVTIECVVGTDPKAAGFSEPENKKVWNPEPKPEPKPEPKPEPKPEPEPAPASDNVWGAPAPLGGGQPATPPPPPVERFSPAKATAPQPPAAPQPVQEAPKPRWQQAAERGMRKMEERAKRPSFSDGVPLPPEPEEPDVPPDLYGYPADEGIPEPQTPQATSNYVVDHDEEEEMVREAAQGVGNRDHRDAMTVAVDILSEELGARQL | not soluble
MGRDSPRDRRHRDRSPERRRRSRSRSRDRQTRRDTRRDDSPKIKREVKEEQFSDNDSPRRRRDDRGGRRDDRRDNRRDDRRDHRDDRGDRDRRDNFRRPDPVREDGKQYGLEKKEENWGKPEEPAKEKEKVNLGTSGALTEDTNTFRGVVIKYNEPPEAKKPNARWRLYPFKGEESLQVLYIHRQSAYLIGRDHKIADIPVDHPSCSKQHAVLQFRSMPFTRDDGTKARRIMPYIIDLGSGNGTFLNEKKIEPQRYIELQEKDMLKFGFSTREYVVMKEREITEEELAEGEDVKKEESD | not soluble
MGSDKIHHHHHHMGGAALPDNGWPADRIDTESAHSARIYDYIIGGKDYYPADKEAGDAMSREWPALPVHMRANRDWMNRAVAHLAKEAGIRQFLDIGTGIPTSPNLHEIAQSVAPESRVVYVDNDPIVLTLSQGLLASTPEGRTAYVEADMLDPASILDAPELRDTLDLTRPVALTVIAIVHFVLDEDDAVGIVRRLLEPLPSGSYLAMSIGTAEFAPQEVGRVAREYAARNMPMRLRTHAEAEEFFEGLELVEPGIVQVHKWHPDAATADGIRDEDIAMYGAVARKP | not soluble
MRTIKLIIAYDGTAYAGFQRQPNGITIQQRLEEALRAVTGEPDLRIGAAAGRTDAGVHARGQVVHLRTYATIPIDRWPAALNGHLPDDIAVIGAEEAPPDFHARYWAREKRYRYTFCLSPYRLPMARLYSYHWHRPVDVDAMRRAAALLVGRHDFAAFRATGGSARTTVRTITRLTLTEEPPFLHLDVTADGFLYNMVRIIAGTLLEVGAGRRSLDRVAQALRHGRREDAGRTLPPHGLCLEEVVYGDGPSIPPWAAEAAPDVDLEP | soluble
MRIDILTLFPGMFSGVLNESILKKAQEKGAVDIRLIDFREFADNKHKTVDDYPYGGGAGMVLKPQPIFDAVEHVTAGSPGARIILLCPQGERYTQKKAEELAKETHLVLICGHYEGYDERIRQYLATDEISIGDYILTGGELGAMVIVDSVVRLLPGVLGNEASPVDDSFSSGLLEYPQYTRPADFRGMKVPDILLSGNHQLIAEWREKESLRRTFLRRPDLLDEYPLTDKQKQWLKEWEKERE | not soluble
MIRILLSNDDGISAPGIQTLASALRGFAQVQIVAPDRNRSGASNALTLDSALRITTLSNGDIAVQQGTPTDCVYLGVNALMRPRPDIVVSGINAGPNLGDDVIYSGTVAAAMEGRHLGYPALAVSLNGHQHYDTAAAVTCRLLRALQRKPLRTGKILNINVPDLPLAEIKGIRVTRCGSRHPAEQVFCQQDPRGQDLYWIGPPGEKYDAGPDTDFAAVEQGYVSITPLQVDLTAYMAQEVVESWLANTEVDGEW | not soluble
MITLGFMSLSRQHEADYSAELAKRAPEFGIRFIRFTPFDISPDTLRVKASVYHSASSTWNETEMAIPDYIYDRCFYGKDSHSQKAKPIVEWLKKYPKTEFIGRGLPDKWTVLHDLQQHSVINPYIPETIKVSRYEQIHSFLSKEKACILKPAFGAGGRGVILLKLGKKNITATYHIGKDKQTKTFSNQTSFKTWCKKVLQHQYLLQPYLNIQDKEQYPCDIRLFMEKNEAGEWNTVGKAVRRGYKHGLLANLSGGSDALTFDSWFEDIPKKQQVVLLDDVFSITQSVPYYLDERYGPLFELGLDICLAKDGRIWILDINSKPGRKSILRVSPEQKEQLYTCPLKRCQYLFSEQSQKGVLPRES | not soluble
GSHMASRTPKKLSNIALTKETRQSSTDYNGFSRLAVDGNKNGDYGHHSVTHTKEDSPSWWEIDLAQTEELEKLIIYNRTDAEIQRLSNFDIIIYDSNDYEVFTQHIDSLESNNLSIDLKGLKGKKVRISLRSAGIPLSLAEVEVYTYK | soluble
MRTMKAPSMGATVEVLSFLQPVTRELVHRSSIAEVFVTDGVRTGENAFSVGAQWPRDHALYHPDENGLNDPLLFAETLRQAHFYGAHTYFGVPVGSRFIGQDVSFEITDPTALRVGAAPLAVVLNGTWTEERDRRGRPAGARLDVTLTVDGRPCGRGHTRGLMLDDRRYRLLRGRPAASGEVSPPRPAPDARIARPNRVGRLRWKDCVLERDRPDQDWRLRVDRDHAVLFDHPTDHVPLMVMLEGFRQLGHLTVHEASRRTLGDRAFALAGLSLDCAAFGELGETILLSLEKGPSEGVPTEECALRVAAHQGERLLARADMTWKCVGSRAPWSRFASWLEHHHHHH | not soluble
